From patent US20170226204A1 (PERONGEN BIOTHERAPEUTICS SUZHOU, published 2017)

T1: human CD7 molecule (human, UniProt P09564 26-240)
T1 construct: whole, on cells; also called CD7 protein
T1 sequence (looked up): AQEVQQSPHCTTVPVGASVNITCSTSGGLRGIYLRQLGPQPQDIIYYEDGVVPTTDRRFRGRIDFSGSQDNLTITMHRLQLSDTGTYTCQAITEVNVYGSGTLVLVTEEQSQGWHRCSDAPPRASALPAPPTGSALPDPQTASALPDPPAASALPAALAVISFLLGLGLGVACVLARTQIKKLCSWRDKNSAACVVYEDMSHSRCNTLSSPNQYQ

B1: anti-human CD7 nanobody clone 1 (VHH)
VHH: DVQLQESGGGSVQAGGSLRLSCPASGYTFSHYCMGWNRQAPGKEREEVATIDTDDTPTYADSVMGRFTISRDNANNALYLQMNDLKPEDTSMYYCAIWMKLRGSCHDRRLEVRGQGTQVTVSI
B2: anti-human CD7 nanobody clone 3 (VHH)
VHH: DVQLQESGGGSVQAGGSLRLSCPASGYTFSHYCMGWLRQAPGKEREEVATIDTDSTPTYADSVMGRFTISRDNANNALYLQMNDLKPEDTSMYYCATWMGLRGSCHDRRLEVRGQGTQVTVSI
B3: anti-human CD7 nanobody clone 4 (VHH)
VHH: DVQLQESGGGSVQAGGSLRLSCAASGYTTSRLCMAWFRQFPGKEREGVANVRLGGYKPAYADSVKGRFTLSEDSAKNTVYLEMNSLQPEDTAMYYCAADPGGGGSCPVALVRGDFDYWGQGTQVTVSI
B4: anti-human CD7 nanobody clone 6 (VHH)
VHH: DVQLQESGGGSVQAGGSLRLSCAASGYTYSTYCMGWFRQAPGKEREGVATIDSDGSTSYADSVKGRFTISRDNAKNTLNLQMSSLKPEDTAMYYCAARFGPMGCVDLSTLSFGHWGQGTQVTVSI

The binders below were run against T1, human CD7 molecule (assay: phage whole-cell ELISA, 293T-CD7+ against 293T-CD7- cells; positive when OD is 2.5 times that of the control well).

Binding result, binds:
B1, B2, B3, B4
